In test [1] the target is T1, BCORL1 PUFD (1594-1711) with METR leader, co-expressed and purified with PCGF1 RAWUL (human, UniProt Q5H9F3-1 1594-1711).
T1 sequence: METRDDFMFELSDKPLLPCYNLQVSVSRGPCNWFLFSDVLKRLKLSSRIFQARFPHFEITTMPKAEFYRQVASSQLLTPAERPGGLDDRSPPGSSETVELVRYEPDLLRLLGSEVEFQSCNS
Kind of test: AUC.

The target in test [2] is BCOR PUFD (1634-1748) with METR leader, co-expressed and purified with PCGF1 RAWUL (human, UniProt Q6W2J9 1634-1748). Kind of test: AUC.

B1: PCGF1 RAWUL (167-255), co-expressed and purified with a PUFD (domain or fragment, human, UniProt Q9BSM1 167-255, looked up)
chain: EQLNLCLERLSSGKDKNKSVLQNKYVRCSVRAEVRHLRRVLCHRLMLNPQHVQLLFDNEVLPDHMTMKQIWLSRWFGKPSPLLLQYSVK
Consider B1, for which the Kd in test [1] and in test [2] was under 8.5 µM each time.

These data come from article PMC4003909 (Structure (London, England : 1993), 2013).
